Measured values reported in PMC5377324.

Experiments:
Experiment in all cases: ITC
[1] = biological target: Atx3_(22Q)-IIC (C-terminal fragment, residues 221-373, of isoform-II Atx3, 22Q)
[2] = biological target: Atx3_(46Q)-IIC (C-terminal fragment, residues 221-373, of isoform-II Atx3, polyQ expanded to 46Q)
[3] = biological target: Atx3_(6Q)-IIC (C-terminal fragment, residues 221-373, of isoform-II Atx3, polyQ truncated to 6Q)

Substance	Kd [1] [µM]	Kd [2] [µM]	Kd [3] [µM]
P97N (N-terminal domain of P97, residues 1-213) (from UniProt P55072 1-213) (domain or fragment)	10	10	10
K48-diUb (Lys48-linked di-ubiquitin) (from UniProt P0CG48 1-76) (complex)	50	50	50
